# Target: GST-G1NC_(long) (GST-fused complete cytosolic domain of rat GIRK1, a.a. 1-84, 184-501) (rat) (UniProt P63251)
# Assay: pull-down
substance,measurement,value
Gβ1(I80N)γ2 (bovine Gβ1 I80N co-translated with bovine Gγ2) (from UniProt P62871 1-340; P63212 1-71) (complex),binding as % of wt Gβγ,89.6%
